Data published in article doi:10.1101/2020.12.08.415968 (bioRxiv, 2020).

Target: T1, SiRHP (sulfite reductase hemoprotein, full length, hydrogenated) (Escherichia coli, UniProt P17846 1-570)
T1 sequence (looked up): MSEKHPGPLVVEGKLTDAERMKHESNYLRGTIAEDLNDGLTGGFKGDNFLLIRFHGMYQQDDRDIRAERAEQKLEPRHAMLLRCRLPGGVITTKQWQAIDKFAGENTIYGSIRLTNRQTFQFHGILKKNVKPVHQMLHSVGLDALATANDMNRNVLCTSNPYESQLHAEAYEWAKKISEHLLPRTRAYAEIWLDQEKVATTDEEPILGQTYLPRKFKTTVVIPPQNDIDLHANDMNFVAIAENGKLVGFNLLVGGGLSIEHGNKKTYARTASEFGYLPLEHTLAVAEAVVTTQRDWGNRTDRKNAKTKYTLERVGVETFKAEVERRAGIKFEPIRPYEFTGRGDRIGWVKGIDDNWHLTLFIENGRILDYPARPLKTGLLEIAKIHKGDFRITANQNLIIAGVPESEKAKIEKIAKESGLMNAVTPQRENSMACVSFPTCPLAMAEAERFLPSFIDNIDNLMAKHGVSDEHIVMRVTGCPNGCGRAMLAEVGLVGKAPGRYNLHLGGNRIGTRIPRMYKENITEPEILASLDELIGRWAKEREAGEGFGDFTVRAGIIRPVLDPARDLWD
Test: AUC

B1: SiRFP-60 (monomeric 60 kDa sulfite reductase flavoprotein, 52 N-terminal amino acids removed) (domain or fragment, Escherichia coli, UniProt P38038 53-599, looked up)
chain: ATPAPAAEMPGITIISASQTGNARRVAEALRDDLLAAKLNVKLVNAGDYKFKQIASEKLLIVVTSTQGEGEPPEEAVALHKFLFSKKAPKLENTAFAVFSLGDSSYEFFCQSGKDFDSKLAELGGERLLDRVDADVEYQAAASEWRARVVDALKSRAPVAAPSQSVATGAVNEIHTSPYSKDAPLVASLSVNQKITGRNSEKDVRHIEIDLGDSGMRYQPGDALGVWYQNDPALVKELVELLWLKGDEPVTVEGKTLPLNEALQWHFELTVNTANIVENYATLTRSETLLPLVGDKAKLQHYAATTPIVDMVRFSPAQLDAEALINLLRPLTPRLYSIASSQAEVENEVHVTVGVVRYDVEGRARAGGASSFLADRVEEEGEVRVFIEHNDNFRLPANPETPVIMIGPGTGIAPFRAFMQQRAADEAPGKNWLFFGNPHFTEDFLYQVEWQRYVKDGVLTRIDLAWSRDQKEKVYVQDKLREQGAELWRWINDGAHIYVCGDANRMAKDVEQALLEVIAEFGGMDTEAADEFLSELRVERRYQRDVY
binding result: binds
